Assay results reported in US20240076389A1 (NATIONAL RESEARCH COUNCIL OF CANADA, published 2024).
Where a chain is given by its changes, count along the chain named.

Tests used:
[1] = target: T1, AXL fragment # 9 (AXL amino acids 26-429, IgL1+IgL2+FN III-1+FN III-2); test: yeast surface display of hAXL fragments (Aga2-HA-(hAXL)-MYC), whole yeast cell ELISA, signal normalised to anti-MYC
T1 construct: not shown: Yeast display carrier and tags (Aga2p, HA, MYC and any linkers)
Description: (§1) Epitope mapping. […] The YSD vector (pPNL6) was from The Pacific Northwest National Laboratory, USA.

[2] = target: T2, AXL fragment # 6 (AXL amino acids 26-226, IgL1+IgL2); test: as above
T2 chain: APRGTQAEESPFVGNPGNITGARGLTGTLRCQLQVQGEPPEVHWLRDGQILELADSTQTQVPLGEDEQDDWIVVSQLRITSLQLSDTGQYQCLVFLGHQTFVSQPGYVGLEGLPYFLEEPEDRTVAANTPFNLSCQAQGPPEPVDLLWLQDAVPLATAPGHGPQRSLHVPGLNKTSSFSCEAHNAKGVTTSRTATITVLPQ
Description: as §1

[3] = target: T3, AXL fragment # 3 (AXL amino acids 26-138, IgL1); test: as above
T3 chain: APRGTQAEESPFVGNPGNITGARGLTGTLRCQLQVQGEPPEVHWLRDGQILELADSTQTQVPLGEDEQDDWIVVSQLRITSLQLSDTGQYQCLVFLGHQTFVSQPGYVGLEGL
Description: as §1

BSA = target: T4, BSA (UniProt P02769 25-607); test: ELISA, antigen coated at 5 µg/ml, mAb 10 µg/ml
T4 construct: also called BSA (negative control)
T4 sequence (P02769 25-607 limits assumed): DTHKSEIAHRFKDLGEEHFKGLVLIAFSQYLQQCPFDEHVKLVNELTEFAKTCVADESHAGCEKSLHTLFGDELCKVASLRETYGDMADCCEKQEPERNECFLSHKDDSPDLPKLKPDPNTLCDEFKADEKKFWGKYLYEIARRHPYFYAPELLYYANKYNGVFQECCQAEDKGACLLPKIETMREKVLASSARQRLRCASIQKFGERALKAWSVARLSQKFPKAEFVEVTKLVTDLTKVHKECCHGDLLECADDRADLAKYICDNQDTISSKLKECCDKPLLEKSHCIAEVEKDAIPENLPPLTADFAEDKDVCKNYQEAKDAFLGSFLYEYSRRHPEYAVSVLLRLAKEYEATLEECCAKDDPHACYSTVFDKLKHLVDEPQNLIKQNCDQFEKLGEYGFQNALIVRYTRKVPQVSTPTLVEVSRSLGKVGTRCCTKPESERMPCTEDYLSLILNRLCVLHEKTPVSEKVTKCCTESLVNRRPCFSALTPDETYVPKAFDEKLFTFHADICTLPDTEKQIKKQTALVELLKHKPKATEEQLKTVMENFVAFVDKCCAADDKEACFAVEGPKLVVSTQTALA
Description: (§2) To evaluate the cross-reactivity of the mAb to other members of the TAM receptor tyrosine kinase subfamily, binding of the mAb to rhAXL-ECD, rhMER-ECD, rhTyro-3 and BSA (negative control) was measured by ELISA. 96-w half-area plates (Costar) were coated with 25 μl of rhAXL-ECD, rhMER-ECD, rhTyro-3 or BSA at 5 μg/ml in PBS and incubated overnight at 4° C. Microplates were washed 3 times with PBS, blocked with PBS-BSA 1%, and 25 μl of a 10 μg/ml diluted in PBS-BSA 1% were added and incubated at 37° C., 5% CO₂ for 2 hours. Plates were washed 4 times with PBS-TWEEN™ 20 0.05% and incubated for one hour at 37° C., 5% CO₂ with 25 μl of secondary antibody alkaline phosphatase conjugated F(ab)′2 goat anti-mouse IgG (H+L) (Jackson Immunoresearch) diluted 1/5000 in blocking buffer. After 4 washes with PBS-Tween 20 0.05%, 25 μl of a 1 mg/ml pN PP substrate solution was added and further incubated for one hour at 37° C. OD405 nm measurements were done using a microplate reader (Spectramax 340 PC, Molecular Devices).

[4] = target: T5, recombinant human AXL extracellular domain, C-terminally His8-tagged (rhAXL-ECD) (human, UniProt P30530 26-451); test: ELISA, antigen coated at 5 µg/ml, mAb 10 µg/ml
T5 construct: Made in CHO cells; also called (rh)AXL-ECD His8; human AXL ECD
T5 sequence: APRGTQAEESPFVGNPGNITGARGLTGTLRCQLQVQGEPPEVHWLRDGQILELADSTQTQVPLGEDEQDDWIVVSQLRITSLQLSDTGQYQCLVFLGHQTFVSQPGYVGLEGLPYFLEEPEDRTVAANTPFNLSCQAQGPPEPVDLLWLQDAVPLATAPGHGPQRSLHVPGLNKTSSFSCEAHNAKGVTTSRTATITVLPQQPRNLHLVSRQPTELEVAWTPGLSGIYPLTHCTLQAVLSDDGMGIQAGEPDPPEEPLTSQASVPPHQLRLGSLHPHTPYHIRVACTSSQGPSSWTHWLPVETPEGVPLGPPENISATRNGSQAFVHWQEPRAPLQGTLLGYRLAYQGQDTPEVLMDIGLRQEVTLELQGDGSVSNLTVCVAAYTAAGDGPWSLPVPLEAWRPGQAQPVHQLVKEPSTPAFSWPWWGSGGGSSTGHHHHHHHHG
Description: as §2

rhTyro-3 = target: T6, rhTyro-3 (human, UniProt Q06418 41-429); test: ELISA, antigen coated at 5 µg/ml, mAb 10 µg/ml
T6 construct: extracellular domain
T6 sequence (looked up): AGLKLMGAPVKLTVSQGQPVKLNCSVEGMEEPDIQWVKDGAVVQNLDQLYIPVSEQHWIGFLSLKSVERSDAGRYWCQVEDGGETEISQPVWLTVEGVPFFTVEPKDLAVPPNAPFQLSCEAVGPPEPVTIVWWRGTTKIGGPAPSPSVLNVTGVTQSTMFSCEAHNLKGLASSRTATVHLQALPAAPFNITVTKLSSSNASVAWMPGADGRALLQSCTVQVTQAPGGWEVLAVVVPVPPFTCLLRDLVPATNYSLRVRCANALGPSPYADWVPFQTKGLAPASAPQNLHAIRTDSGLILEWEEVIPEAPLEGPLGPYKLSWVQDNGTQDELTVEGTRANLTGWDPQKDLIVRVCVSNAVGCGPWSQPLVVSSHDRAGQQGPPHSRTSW
Description: as §2

rhMER-ECD = target: T7, rhMER-ECD (human, UniProt Q12866 21-505); test: ELISA, antigen coated at 5 µg/ml, mAb 10 µg/ml
T7 construct: extracellular domain
T7 sequence (looked up): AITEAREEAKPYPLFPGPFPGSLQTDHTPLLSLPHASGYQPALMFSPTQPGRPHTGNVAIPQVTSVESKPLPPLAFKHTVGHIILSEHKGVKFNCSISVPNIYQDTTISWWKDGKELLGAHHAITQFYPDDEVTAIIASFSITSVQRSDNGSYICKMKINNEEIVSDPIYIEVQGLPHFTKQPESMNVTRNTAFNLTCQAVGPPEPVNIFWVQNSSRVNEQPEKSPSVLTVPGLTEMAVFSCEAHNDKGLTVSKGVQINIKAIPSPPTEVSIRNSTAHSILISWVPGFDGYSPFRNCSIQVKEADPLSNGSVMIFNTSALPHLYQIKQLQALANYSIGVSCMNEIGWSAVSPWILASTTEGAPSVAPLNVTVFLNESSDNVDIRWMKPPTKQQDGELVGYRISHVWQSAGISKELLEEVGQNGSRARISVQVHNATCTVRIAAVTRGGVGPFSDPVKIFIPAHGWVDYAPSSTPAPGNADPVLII
Description: as §2

B1: F107-8D12 (antibody, V domains shown)
VH: QVQLQQPGAELVKPGASVQLSCKASGYTFISFWINWVKQRPGQGLEWMGNIFPGSSSTNYNEKFKSKATLTVDKSSSTAYMQLSSLTSEDSAVYFCARDYYGGSPDYWGQGTTLTVSS
VL: DIVMSQSPSSLAVSAGERVTMSCKSSQSLLNTRTRKNYLAWYQQKPGQSPKLLIYWASTRESGVPDRFTGSGSGTDFTLTISSVQAEDLAVYYCKQSYNLWTFGGGTKLEIK
notes: also called F107-8D12-2; mAb 8D12
[1]
  binding result: binds
[2]
  binding result: binds
[3]
  binding result: binds
BSA
  OD405 nm: 0 OD405
[4]
  OD405 nm: 2.59 OD405
rhTyro-3
  OD405 nm: 0 OD405
rhMER-ECD
  OD405 nm: 0 OD405

B2: F107-7H5 (antibody, V domains shown)
VH: QVQLQQPGAELVKPGASVKLSCKASGYTFTSYWINWVKQRPGQGLEWIGNIYPDSSSTNYNEKFKSKATLTVDKSSTTAYIQFSSLTSEDSAVYYCTRDTYGGSPDYWGQGTTLTVSS
VL: B1 VL with R18K, T32S, N37I, E61Q
notes: also called F107-7H5-2; mAb 7H5
[1]
  binding result: binds
[2]
  binding result: binds
[3]
  binding result: binds
BSA
  OD405 nm: 0 OD405
[4]
  OD405 nm: 2.4 OD405
rhTyro-3
  OD405 nm: 0 OD405
rhMER-ECD
  OD405 nm: 0 OD405

B3: F107-10G1 (antibody, V domains shown)
VH: EVNLVESGGGVVKPGASLKLSCEASGFTFSNYGMSWVRQTSDKRLEWVASISGGGGRTYYLDNVKGRFIISRENAKNTLYLQMSSLKSEDTALFYCARGARASYFAMDYWGQGSSVTVSS
VL: VIVMTQSHKFMSTSVGDRVSITCKASQDVTTAVAWYQQKPGQSPKLLIYWASTRHTGVPDRFTGSGSGTDYSLTISNVQTEDLAFYYCQQHFTTPLTFGAGTKLELK
notes: also called F107-10G1-3
[1]
  binding result: binds
[2]
  binding result: binds
[3]
  binding result: binds
BSA
  OD405 nm: 0 OD405
[4]
  OD405 nm: 1.76 OD405
rhTyro-3
  OD405 nm: 0 OD405
rhMER-ECD
  OD405 nm: 0 OD405

B4: F111-5E9 (antibody, V domains shown)
VH: QIQLVQSGPELKKPGETVKISCKASGYTFTKYGMNWVKQAPGKGLKWMGWINTYTGEPTYADDFKGRFAFSLETSASTAYLQINNLTTEDMVTYFCAKGGYYSNPIYPMDYWGQGTSVTVSS
VL: DIQMTQTTSSLSASLGDRVTISCRASQDINNYLNWYQQKPDGTVKLLIYYISRLHSGVPSRFSGSGSGTDYSLTISNLELEDVATYFCQQGNTLPFTFGSGTKLEIK
notes: also called F111-5E9-2; mAb 5E9
[1]
  binding result: binds
[2]
  binding result: binds
BSA
  OD405 nm: 0 OD405
[4]
  OD405 nm: 1.36 OD405
rhTyro-3
  OD405 nm: 0 OD405
rhMER-ECD
  OD405 nm: 0 OD405

B5: F111-3C8 (antibody, V domains shown)
VH: QVQLQQPGAELGKPGTSVKLSCKASGYTFTSYWMHWVKRVPGQGLEWIGNINPNSTSADYNEKFKRKATLTVDKSSSTAYMQLSTLTSEDSAVYYCTRPLMGPYWYFDVWGTGTTVTVSS
VL: QIVLTQSPAIMSASPGEKVTISCSASSSVSYMYWYQQKPGSSPKPWIYRTSNLASGVPARFSGSGSGTSYSLTISSMEAEDAATYYCQQYHNYPPTFGGGTKLEIK
notes: also called F111-3C8-2
[1]
  binding result: binds
[2]
  binding result: binds
BSA
  OD405 nm: 0 OD405
[4]
  OD405 nm: 2.3 OD405
rhTyro-3
  OD405 nm: 0 OD405
rhMER-ECD
  OD405 nm: 0 OD405
